Results on 1 substance are retold here after paper PMC2943039.

This experiment has as its target PCNA (Proliferating Cell Nuclear Antigen) (UniProt P12004). Description: PCNA-bead pull-down, anti-FEN1 blot. The following applies: reference: wild type, kinase-treated; sites S187.

Take “FEN1 (flap endonuclease 1) (from UniProt P39748) S187A, kinase-treated”: the “binding against the reference” value is “stronger”.
